One block for each molecule: values may come before it.
Assays:
L6 cells [1] = test: Cell toxicity in L6 cells; assay type: cell-based, rat; conditions: 10μM peptide in the presence of liposomes, data not shown
L6 cells [2] = test: FACS analysis of peptide uptake in L6 cells; assay type: cell-based, rat; conditions: FITC-conjugated peptide, increasing concentrations, in the presence of liposomes, harvested 48h later, FACS FL-1, four experiments
Protocol: Figure 3 Design and in vitro effects of Prep1(54-72) peptide on Prep1/p160 association (A) Binding curves of Prep1(59-72) and Prep1(54-72) peptides to p160_20-160 by ELISA-like assays. Biotinylated peptides at several concentrations were added in triplicate to a 96-well plate coated with p160_20-160 (0.1μM). Experiments were performed at least twice and the average results fitted using GraphPad Prism. […] (B) Competition binding experiments. His6-tagged-p160_20-160 at 0.25μM was incubated with Prep1(59-72) and Prep1(54-72) at concentrations ranging between 0.001÷10μM and added to a 96-well plate coated with Prep1_45-155 (0.10μM). Results are the average of three independent experiments. (C) L6 cells were incubated with increasing concentrations of the fluorescein-conjugated peptide (FITC-Prep1(54-72)) and peptide uptake was detected by FACS analysis of fluorescein-labeled cells. […] Protein lysates were immunoprecipitated with Prep1 antibodies and analyzed by Western blot using antibodies for p160 or for Prep1. […] The blots were detected by ECL and autoradiography. […]
L6 cells were incubated with negative control (NC) and Prep1(54-72) peptides conjugated with fluorescein isothiocianate (FITC) at different concentrations and harvested 48h later. […] The samples were acquired by a BD LSRFortessa (BD Bioscience, San Jose, CA) and analyzed using BD FACS Diva Software.

[3] = target: Prep1 (Pbx regulating protein 1), endogenous in L6 cells (rat (endogenous in L6))
His6-tagged p160(20-160) = target: T1, His6-tagged p160(20-160) (UniProt Q7TPV4 20-160); test: ELISA; competition ELISA: plate coated with Prep1(45-155) (0.1 uM); His6-tagged p160(20-160) at 0.25 uM pre-incubated with peptides at 0.001-10 uM; detection with anti-His HRP-conjugated antibody; conditions: both partners purified
T1 construct: also called His6-p160(20-160); p160(20-160) domain
T1 sequence (looked up): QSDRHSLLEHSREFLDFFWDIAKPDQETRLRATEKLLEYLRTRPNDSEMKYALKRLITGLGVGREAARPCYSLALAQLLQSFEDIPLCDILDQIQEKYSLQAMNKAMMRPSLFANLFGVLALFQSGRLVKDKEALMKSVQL

Molecule: FITC-Prep1(54-72): fluorescein-conjugated Prep1(54-72) peptide
cell toxicity (L6 cells [1]): without inducing any apparent cell toxicity | peptide uptake into cells (L6 cells [2]): dose-dependent manner

decrease in p160 protein level in C2cer-treated L6 cells incubated with Prep1(54-72), Western blot [3]: 25%
B1: p160 myb binding protein, endogenous in L6 cells (natural protein)
chain: MAEMKSPTKAEPASPAEAPQGDRRSLLEHSREFLDFFWDIAKPDQETRLRATEKLLEYLRTRPSDSEMKYALKRLITGLGVGREAARPCYSLALAQLLQSFEDIQLCDILGQIQEKYNLQAMNKAMMRPTLFANLFGVLALFQSGRLVKDKEALMKCVRLLKILSHHYNHLQGQPVKALVDILSEVPESMFQEILPKVLKGDMKVILSSPKYLELFLLARQRVPAELESLVGSVDLFSEDNIPSLVNILKVAANSVKKEQKLPDVALNLLRLALQENKFERFWKEVLEEGLLKKPSYTSSYMCFRLLGASLPLLSDEQLQLVMRGDLIRHFGEHMVVSKSQNPLRFIPEISAYVGTFLEGCQDDPKRQFTVMVAFTAITNQGLPVMPTFWRVTRFLNTEALQNYVTWLRDMFLQPDLDSLVDFSTANQKRVQVASLNVPERTVFRLRKWIIHRLVSLVDHLHLEKDEAVVEQIARFCLFHAFFKTKKATPQIPETKQHFSFPLEDGNRGVIVSAFFSLLQTLSVKFRQTPDLAENGKPWTYRLVQLADMLLKHNRNVANVTPLTAQQRQAWDQMMSTLKELEAQSSETRAIAFQHLLLLVGLHLFKSPAESCDVLGDIQTCIKKSMEQNLRRSRSRAKASQEPVWVEVMVEILLSLLAQPSNLMRQVVRSVFGHVCSHLTPRGLQLILAVLNPETNEDEEDNVVVTDTDEKQLKHGEDADSDSEDSKNSESDVDSEDGEESEEEDRDKDVDPGFRQQLMEVLQAGNALGGEEEEEEELGDEAMMALDQNLASLFAEQKMRIQARHEEKNKLQKEKQLRRDFQIRALDLIEVLVTKQPEHPLILELLEPLLNIIQRSMRSRGSTKQEQDLLHKTARIFMHHLCRARHYCHEVEPGAEALHAQVERLVQQAGNQADASVALYYFNASLYLLRVLKGNTTKRYQDGQKLEGADIKSEPKDSEVQTTSCLDLDFVTRVYSASLESLLTKRNSPLTIPMFLDLFSRYPVICKNLLPIVVQHVAGSSRPRHQAQACLLLQKALSARELRVCFEDPEWEQLISQVLGKTTQTLQTLGEAQSKGEHQRELSILELLNTVFRIVNHEKLSVDLTAFLGMLQGKQQKLQQNLQQGNHSSGSSRLYDLYWQAMNLLGVQRPKSEKKNVKDIPSDSQSPISTKRKKKGFLPETKKRKKLKSEGTTSEKKAASQQDAVTEGAMPAATGKDQPPSTGKKRRKRVKANTPSQVNGVTVAKSPAPNNPTLSPSTPPAKTPKVQKKKEKLSQVNGSTPVSPVEPESKKHQKALSTKEVKRRSSQSALPKKRARLSLVSRSPSLLQSGIRKRRVARRRVQTP

IC50 (His6-tagged p160(20-160)): 200 nM
B2: Prep1(54-72) peptide (peptide)
peptide: Ac-KQAIYRHPLFPLLALLFEK-NH2
notes: Prep1 (Pbx regulating protein 1), stretch of the HR1 domain, named residues 54-72; Brought into L6 cells in the presence of liposomes for the cell experiments; source: synthetic peptide (Fmoc solid phase, RP-HPLC purified)
